Publication doi:10.1101/2021.12.16.473085 (2021)

Tests used:
Assay in all cases: SPR
hGH K41R = biological target: hGH K41R
hGH E65Y = biological target: hGH E65Y
hGH R178Y = biological target: hGH R178Y
hGH Q46R = biological target: hGH Q46R
hGH Q22H = biological target: hGH Q22H
hGH R178F = biological target: hGH R178F
hGH S51D = biological target: hGH S51D

Kd (hGH K41R): 20 nM
koff (hGH K41R): 0.001 s⁻¹
Kd (hGH E65Y): 0.4 nM
koff (hGH E65Y): 0.0003 s⁻¹
Kd (hGH R178Y): 20 nM
koff (hGH R178Y): 0.006 s⁻¹
Kd (hGH Q46R): 40 nM
koff (hGH Q46R): 0.0006 s⁻¹
Kd (hGH Q22H): 8 nM
koff (hGH Q22H): 0.0004 s⁻¹
Kd (hGH R178F): 30 nM
koff (hGH R178F): 0.008 s⁻¹
Kd (hGH S51D): 0.6 nM
koff (hGH S51D): 0.0007 s⁻¹
B1: human Growth Hormone Receptor (hGHR) (receptor)
chain: FSGSEATAAILSRAPWSLQSVNPGLKTNSSKEPKFTKCRSPERETFSCHWTDEVHHGTKNLGPIQLFYTRRNTQEWTQEWKECPDYVSAGENSCYFNSSFTSIWIPYCIKLTSNGGTVDEKCFSVDEIVQPDPPIALNWTLLNVSLTGIHADIQVRWEAPRNADIQKGWMVLEYELQYKEVNETKWKMMDPILTTSVPVYSLKVDKEYEVRVRSKQRNSGNYGEFSEVLYVTLPQMSQFTCEEDFYFPWLLIIIFGIFGLTVMLFVFLFSKQQRIKMLILPPVPVPKIKGIDPDLLKEGKLEEVNTILAIHDSYKPEFHSDDSWVEFIELDIDEPDEKTEESDTDRLLSSDHEKSHSNLGVKDGDSGRTSCCEPDILETDFNANDIHEGTSEVAQPQRLKGEADLLCLDQKNQNNSPYHDACPATQQPSVIQAEKNKPQPLPTEGAESTHQAAHIQLSNPSSLSNIDFYAQVSDITPAGSVVLSPGQKNKAGMSQCDMHPEMVSLCQENFLMDNAYFCEADAKKCIPVAPHIKVESHIQPSLNQEDIYITTESLTTAAGRPGTGEHVPGSEMPVPDYTSIHIVQSPQGLILNATALPLPDKEFLSSCGYVSTDQLNKIMP
